# Results published in article PMC4115224, “Real-Time Interaction between TBP and the TATA Box of the Human Triosephosphate Isomerase Gene Promoter in the Norm and Pathology”.
# B1: TPI TATA box, wild type (T allele) (dsDNA)
# DNA 1: GCTCTATATAAGTGG
# DNA 2: CCACTTATATAGAGC
# B2: TPI TATA box, -24T>G SNP (G allele) (dsDNA)
# DNA 1: GCTCTATAGAAGTGG
# DNA 2: CCACTTCTATAGAGC
# Legend:
# [1] = target: T1, TATA-binding protein (TBP) (human, UniProt P20226 1-339); assay: stopped-flow FRET; kon (1.1 ± 0.1)e6 M-1 s-1; koff (2.8 ± 0.1)e-3 s-1; KA 3.7e8 M-1; 25 C; 25 C; 0.1 uM DNA duplex; TBP 0.1-2 uM (T allele) or 0.4-4 uM (G allele); buffer, salt and pH not given in the material; conditions: protein: recombinant; label: Cy3/Cy5 FRET pair at the duplex ends
# [2] = target: T1, TATA-binding protein (TBP); assay: stopped-flow FRET; kon (0.2 ± 0.1)e6 M-1 s-1; koff (8.9 ± 1.2)e-2 s-1; KA 2.3e6 M-1; 25 C; 25 C; 0.1 uM DNA duplex; TBP 0.1-2 uM (T allele) or 0.4-4 uM (G allele); buffer, salt and pH not given in the material; conditions: protein: recombinant; label: Cy3/Cy5 FRET pair at the duplex ends
# T1 sequence (P20226 whole entry): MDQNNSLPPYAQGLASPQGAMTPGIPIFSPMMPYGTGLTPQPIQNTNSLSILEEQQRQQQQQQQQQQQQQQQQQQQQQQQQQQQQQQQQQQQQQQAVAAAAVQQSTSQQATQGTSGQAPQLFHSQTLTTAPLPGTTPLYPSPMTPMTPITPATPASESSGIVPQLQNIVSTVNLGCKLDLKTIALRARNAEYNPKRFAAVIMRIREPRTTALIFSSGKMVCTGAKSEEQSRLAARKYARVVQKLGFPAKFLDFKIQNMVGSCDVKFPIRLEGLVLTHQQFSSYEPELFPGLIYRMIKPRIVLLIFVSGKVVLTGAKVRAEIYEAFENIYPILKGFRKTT
Binder,Kd [1] [µM],Kd [2] [µM]
B1,0.0027,
B2,,0.4
